{"source": "patent US20040053370A1", "about": "(Eli Lilly, published 2004)", "binders": {"B1": {"name": "Gly^8-His^11-GLP-1(7-37)OH (peptide)", "peptide": "HGEGHFTSDVSSYLEGQAAKEFIAWLVKGRG"}, "B2": {"name": "Val^8-Ala^11-GLP-1(7-37)OH (peptide)", "peptide": "HVEGAFTSDVSSYLEGQAAKEFIAWLVKGRG"}, "B3": {"name": "Val^8-Lys^11-GLP-1(7-37)OH (peptide)", "peptide": "HVEGKFTSDVSSYLEGQAAKEFIAWLVKGRG"}, "B4": {"name": "Val^8-Glu^16-GLP-1(7-37)OH (peptide)", "peptide": "HVEGTFTSDESSYLEGQAAKEFIAWLVKGRG"}, "B5": {"name": "Val^8-Ala^16-GLP-1(7-37)OH (peptide)", "peptide": "HVEGTFTSDASSYLEGQAAKEFIAWLVKGRG"}, "B6": {"name": "Val^8-Lys^20-GLP-1(7-37)OH (peptide)", "peptide": "HVEGTFTSDVSSYKEGQAAKEFIAWLVKGRG"}, "B7": {"name": "Gln^22-GLP-1(7-37)OH (peptide)", "peptide": "HAEGTFTSDVSSYLEQQAAKEFIAWLVKGRG"}, "B8": {"name": "Val^8-Ala^22-GLP-1(7-37)OH (peptide)", "peptide": "HVEGTFTSDVSSYLEAQAAKEFIAWLVKGRG"}, "B9": {"name": "Val^8-Ser^22-GLP-1(7-37)OH (peptide)", "peptide": "HVEGTFTSDVSSYLESQAAKEFIAWLVKGRG"}, "B10": {"name": "Val^8-Asp^22-GLP-1(7-37)OH (peptide)", "peptide": "HVEGTFTSDVSSYLEDQAAKEFIAWLVKGRG"}, "B11": {"name": "Val^8-Glu^22-GLP-1(7-37)OH (peptide)", "peptide": "HVEGTFTSDVSSYLEEQAAKEFIAWLVKGRG"}, "B12": {"name": "Val^8-Lys^22-GLP-1(7-37)OH (peptide)", "peptide": "HVEGTFTSDVSSYLEKQAAKEFIAWLVKGRG"}, "B13": {"name": "Val^8-Pro^22-GLP-1(7-37)OH (peptide)", "peptide": "HVEGTFTSDVSSYLEPQAAKEFIAWLVKGRG"}, "B14": {"name": "Val^8-His^22-GLP-1(7-37)OH (peptide)", "peptide": "HVEGTFTSDVSSYLEHQAAKEFIAWLVKGRG"}, "B15": {"name": "Val^8-Lys^22-GLP-1(7-36)NH2 (peptide)", "peptide": "HVEGTFTSDVSSYLEKQAAKEFIAWLVKGR-NH2"}, "B16": {"name": "Val^8-Glu^22-GLP-1(7-36)NH2 (peptide)", "peptide": "HVEGTFTSDVSSYLEEQAAKEFIAWLVKGR-NH2"}, "B17": {"name": "Val^8-Lys^23-GLP-1(7-37)OH (peptide)", "peptide": "HVEGTFTSDVSSYLEGKAAKEFIAWLVKGRG"}, "B18": {"name": "Val^8-His^24-GLP-1(7-37)OH (peptide)", "peptide": "HVEGTFTSDVSSYLEGQHAKEFIAWLVKGRG"}, "B19": {"name": "Val^8-Lys^24-GLP-1(7-37)OH (peptide)", "peptide": "HVEGTFTSDVSSYLEGQKAKEFIAWLVKGRG"}, "B20": {"name": "Val^8-His^26-GLP-1(7-37)OH (peptide)", "peptide": "HVEGTFTSDVSSYLEGQAAHEFIAWLVKGRG"}, "B21": {"name": "Val^8-Glu^26-GLP-1(7-37)OH (peptide)", "peptide": "HVEGTFTSDVSSYLEGQAAEEFIAWLVKGRG"}, "B22": {"name": "Val^8-His^27-GLP-1(7-37)OH (peptide)", "peptide": "HVEGTFTSDVSSYLEGQAAKHFIAWLVKGRG"}, "B23": {"name": "Gly^8-Glu^30-GLP-1(7-37)OH (peptide)", "peptide": "HGEGTFTSDVSSYLEGQAAKEFIEWLVKGRG"}, "B24": {"name": "Val^8-Glu^30-GLP-1(7-37)OH (peptide)", "peptide": "HVEGTFTSDVSSYLEGQAAKEFIEWLVKGRG"}}, "note": "Ends that are not written are not given here."}
{"biological_target": "GLP-1 receptor", "assay": "cell-based or functional assay"}
{"binder": "B1", "GLP-1 Receptor Activation": "0.282 fold of GLP-1(7-37)OH"}
{"binder": "B2", "GLP-1 Receptor Activation": "0.021 fold of GLP-1(7-37)OH"}
{"binder": "B3", "GLP-1 Receptor Activation": "0.001 fold of GLP-1(7-37)OH"}
{"binder": "B4", "GLP-1 Receptor Activation": "0.047 fold of GLP-1(7-37)OH"}
{"binder": "B5", "GLP-1 Receptor Activation": "0.112 fold of GLP-1(7-37)OH"}
{"binder": "B6", "GLP-1 Receptor Activation": "0.33 fold of GLP-1(7-37)OH"}
{"binder": "B7", "GLP-1 Receptor Activation": "0.42 fold of GLP-1(7-37)OH"}
{"binder": "B8", "GLP-1 Receptor Activation": "0.56 fold of GLP-1(7-37)OH"}
{"binder": "B9", "GLP-1 Receptor Activation": "0.5 fold of GLP-1(7-37)OH"}
{"binder": "B10", "GLP-1 Receptor Activation": "0.4 fold of GLP-1(7-37)OH"}
{"binder": "B11", "GLP-1 Receptor Activation": "1.29 fold of GLP-1(7-37)OH"}
{"binder": "B12", "GLP-1 Receptor Activation": "0.58 fold of GLP-1(7-37)OH"}
{"binder": "B13", "GLP-1 Receptor Activation": "0.01 fold of GLP-1(7-37)OH"}
{"binder": "B14", "GLP-1 Receptor Activation": "0.14 fold of GLP-1(7-37)OH"}
{"binder": "B15", "GLP-1 Receptor Activation": "0.53 fold of GLP-1(7-37)OH"}
{"binder": "B16", "GLP-1 Receptor Activation": "1 fold of GLP-1(7-37)OH"}
{"binder": "B17", "GLP-1 Receptor Activation": "0.18 fold of GLP-1(7-37)OH"}
{"binder": "B18", "GLP-1 Receptor Activation": "0.007 fold of GLP-1(7-37)OH"}
{"binder": "B19", "GLP-1 Receptor Activation": "0.02 fold of GLP-1(7-37)OH"}
{"binder": "B20", "GLP-1 Receptor Activation": "1.6 fold of GLP-1(7-37)OH"}
{"binder": "B21", "GLP-1 Receptor Activation": "1.5 fold of GLP-1(7-37)OH"}
{"binder": "B22", "GLP-1 Receptor Activation": "0.37 fold of GLP-1(7-37)OH"}
{"binder": "B23", "GLP-1 Receptor Activation": "0.29 fold of GLP-1(7-37)OH"}
{"binder": "B24", "GLP-1 Receptor Activation": "0.29 fold of GLP-1(7-37)OH"}
